Measurements from patent JP2008278814A (dated 2008).

How the values were obtained:
[1] = molecular target: T1, GITR断片(アミノ酸翻訳部分N末端1-65番目)−HIDE1の膜貫通領域−mycタグ (human, UniProt Q9Y5U5 26-65); test: immunoprecipitation from 293T lysate, Western blot with HRP-labelled anti-myc antibody
T1 construct: domain: 膜貫通領域; Includes the signal peptide as encoded; no cleavage site stated; also called N末端1-65番目のGITR断片; not shown: HIDE1 transmembrane region; myc tag
T1 chain: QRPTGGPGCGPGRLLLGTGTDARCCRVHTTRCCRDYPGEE

[2] = molecular target: T2, GITR断片(アミノ酸翻訳部分N末端1-72番目)−HIDE1の膜貫通領域−mycタグ (human, UniProt Q9Y5U5 26-72); test: as above
T2 construct: domain: 膜貫通領域; also called N末端1-72番目のGITR断片; not shown: HIDE1 transmembrane region; myc tag
T2 chain: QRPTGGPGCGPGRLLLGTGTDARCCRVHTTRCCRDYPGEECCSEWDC

[3] = molecular target: T3, GITR断片(アミノ酸翻訳部分N末端1-60番目)−HIDE1の膜貫通領域−mycタグ (human); test: as above
T3 construct: domain: 膜貫通領域; Includes the signal peptide as encoded; no cleavage site stated; also called GITRの1-180塩基長; N末端1-60番目のGITR断片; not shown: HIDE1 transmembrane region; myc tag
T3 chain: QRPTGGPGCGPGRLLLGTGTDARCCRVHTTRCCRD

[4] = molecular target: T4, ヒトGITR(glucocorticoid-induced tumor necrosis factor receptor-family related gene) (human, UniProt Q9Y5U5 26-241); test: cell ELISA and flow cytometry of hybridoma supernatant on 293T/GITR cells
T4 construct: whole, on cells; also called TNFRSF18
T4 sequence (looked up): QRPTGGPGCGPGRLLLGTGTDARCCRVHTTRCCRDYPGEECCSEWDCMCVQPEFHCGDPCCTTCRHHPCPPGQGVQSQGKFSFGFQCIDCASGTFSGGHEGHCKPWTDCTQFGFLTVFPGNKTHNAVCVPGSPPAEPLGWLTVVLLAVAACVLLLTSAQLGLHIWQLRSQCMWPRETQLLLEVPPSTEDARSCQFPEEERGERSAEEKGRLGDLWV

Measured: binding result

B1: 抗ヒトGITRモノクローナル抗体(40-44抗体) (antibody, V domains shown)
VH: QVQLQQSGAELVRPGTSVKVSCKASGYAFSNYLIEWVKQRPGQGLEWIGVINPGSGSTNYNEKFKGKATLTADKSSSTAYMQLSSLTSDDSAVYFCARRTYYYGSNYYAMDYWGQGTSVTVSS
VL: DIQMNQSPSSLSSSLGDTITITCHASQNINVWLSWYQQKPGNIPKLLIYKASNLHTGVPSRFSGSGSGTGFTLTISSLQPEDIATYYCQQGQSYPFTFGSGTKLEIK
notes: Mouse (Balb/c) hybridoma monoclonal antibody; mouse IgG2A and mouse IgG1 were used as controls in different experiments; also called 抗ヒトGITR抗体
binds: all assays above
